Measured values from patent publication US20240317847A1 (Bayer, published 2024).

T1: human IL-11 (human, UniProt P20809 22-199)
T1 construct: bought from Invigate; also called hIL-11; hIL11
T1 sequence: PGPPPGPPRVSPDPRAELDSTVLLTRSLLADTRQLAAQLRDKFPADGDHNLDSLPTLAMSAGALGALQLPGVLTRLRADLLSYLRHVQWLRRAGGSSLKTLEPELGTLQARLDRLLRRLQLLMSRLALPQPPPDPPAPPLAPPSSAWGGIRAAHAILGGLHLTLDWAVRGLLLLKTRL

T2: murine IL-11 (mouse, UniProt P47873 22-199)
T2 construct: bought from Invigate; also called mIL-11; mIL11
T2 sequence: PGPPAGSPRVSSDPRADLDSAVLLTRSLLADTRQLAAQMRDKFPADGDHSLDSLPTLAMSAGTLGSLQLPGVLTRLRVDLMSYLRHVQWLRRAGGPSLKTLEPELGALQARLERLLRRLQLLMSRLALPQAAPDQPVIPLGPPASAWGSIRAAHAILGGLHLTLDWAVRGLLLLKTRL


What was measured:
human IL-11 = molecular target: T1, human IL-11; assay: SPR, antibody captured, IL-11 as analyte
Procedure: (§1) Antibodies were captured via anti-mouse Fc IgGs (“Mouse antibody capture kit, Order No. BR100383, Cytiva) covalently amine coupled to a Series S CM5 sensor chip (Cytiva). The amine coupling was carried out according to the manufacturer's instructions using 1-ethyl-3-(3-dimethylaminopropyl) carbodiimide hydrochloride (EDC), N-hydroxysuccinimide (NHS) and ethanolamine HCl, pH 8.5 (“Amine Coupling Kit” BR-1000-50, Cytiva.). Human IL-11 (Invigate, e.g., lot #C121021-19), and murine IL-11 (Invigate, e.g., lot #C210819-09) were used as analytes. […] Based on that experiment an IL-11 concentration range was chosen to optimally determine kinetics and affinity of anti-IL-11 antibodies in multicycle kinetics mode. The sensor surface was regenerated with glycine pH 1.7 after each antigen injection. Obtained sensorgrams were double referenced (subtraction of reference flow cell signal and buffer injection) and were fitted to a 1:1 Langmuir binding model to derive kinetic data using the Biacore T200 Evaluation software or the Biacore Insight software.
(§2) 42 hits from the IL-11 and […] screening analysis were selected, expressed by transient transfection of mammalian cells and purified as described in Example 15. Antibodies were then tested for human IL-11 and murine IL-11 binding by SPR as described in Example 16.

murine IL-11 = molecular target: T2, murine IL-11; assay: SPR, antibody captured, IL-11 as analyte
Procedure: as §1, §2

Binder | Kd (human IL-11) | Kd (murine IL-11)
TPP-26310 (antibody, V domains shown, constant regions not restated) VH: EVQLLESGGGLVQPGGSLRLSCAASGFTFSSYGMHWVRQAPGKGLEWVSVISYDGSYKYYADSVKGRFTISRDNSKNTLYLQMNSLRAEDTAVYYCAAGVPDYWGQGTLVTVSS VL: QSVLTQPPSASGTPGQRVTISCTGSSSNIGAGYDVHWYQQLPGTAPKLLIYSNNERPWGVPDRFSGSKSGTSASLAISGLRSEDEADYYCAAWDDSLNGPVFGGGTKLTVL | 13 nM | 0.66 nM
TPP-26306 (antibody, V domains shown, constant regions not restated) VH: EVQLLESGGGLVQPGGSLRLSCAASGFTFSSYGMHWVRQAPGKGLEWVSVISYDGSYKYYADSVKGRFTISRDNSKNTLYLQMNSLRAEDTAVYYCAAGVPDYWGQGTLVTVSS VL: QSVLTQPPSASGTPGQRVTISCTGSSSNIGAGYDVHWYQQLPGTAPKLLIYSNNERPSGVPDRFSGSKSGTSASLAISGLRSEDEADYYCAAWDQSLNGPVFGGGTKLTVL | 12 nM | 0.65 nM
TPP-26314 (antibody, V domains shown, constant regions not restated) VH: EVQLLESGGGLVQPGGSLRLSCAASGFTFSSYGMHWVRQAPGKGLEWVSVISYDGSYKYYADSVKGRFTISRDNSKNTLYLQMNSLRAEDTAVYYCAAGVPDYWGQGTLVTVSS VL: QSVLTQPPSASGTPGQRVTISCTGSSSNIGAGYDVHWYQQLPGTAPKLLIYSNNERPSGVPDRFSGSKSGTSASLAISGLRSEDEADYYCAAWDWSLNGPVFGGGTKLTVL | 8.3 nM | 0.56 nM
TPP-26309 (antibody, V domains shown, constant regions not restated) VH: EVQLLESGGGLVQPGGSLRLSCAASGFTFSSYGMHWVRQAPGKGLEWVSVISYDGSYKYYADSVKGRFTISRDNSKNTLYLQMNSLRAEDTAVYYCAAGVPDYWGQGTLVTVSS VL: QSVLTQPPSASGTPGQRVTISCTGSSSNIGAGYDVHWYQQLPGTAPKLLIYSNNERPSGVPDRFSGSKSGTSASLAISGLRSEDEADYYCAAWDFSLNGPVFGGGTKLTVL | 8.2 nM | 0.8 nM
TPP-26313 (antibody, V domains shown, constant regions not restated) VH: EVQLLESGGGLVQPGGSLRLSCAASGFTFSSYGMHWVRQAPGKGLEWVSVISYDGSYKYYADSVKGRFTISRDNSKNTLYLQMNSLRAEDTAVYYCAAGVPDYWGQGTLVTVSS VL: QSVLTQPPSASGTPGQRVTISCTGSSSNIGAYYDVHWYQQLPGTAPKLLIYSNNERPSGVPDRFSGSKSGTSASLAISGLRSEDEADYYCAAWDDSLNGPVFGGGTKLTVL | 9.1 nM | 0.46 nM
TPP-26318 (antibody, V domains shown, constant regions not restated) VH: EVQLLESGGGLVQPGGSLRLSCAASGFTFSSYGMHWVRQAPGKGLEWVSVISYDGSYKYYADSVKGRFTISRDNSKNTLYLQMNSLRAEDTAVYYCAAGVPDYWGQGTLVTVSS VL: QSVLTQPPSASGTPGQRVTISCTGSSSNIGAGYFVHWYQQLPGTAPKLLIYSNNERPSGVPDRFSGSKSGTSASLAISGLRSEDEADYYCAAWDDSLNGPVFGGGTKLTVL | 14 nM | 8.1 nM
TPP-26315 (antibody, V domains shown, constant regions not restated) VH: EVQLLESGGGLVQPGGSLRLSCAASGFTFSSYGMHWVRQAPGKGLEWVSVISYDGSYKYYADSVKGRFTISRDNSKNTLYLQMNSLRAEDTAVYYCAAGVPDYWGQGTLVTVSS VL: QSVLTQPPSASGTPGQRVTISCTGSSSNIGAHYDVHWYQQLPGTAPKLLIYSNNERPSGVPDRFSGSKSGTSASLAISGLRSEDEADYYCAAWDDSLNGPVFGGGTKLTVL | 14 nM | 0.95 nM
TPP-26304 (antibody, V domains shown, constant regions not restated) VH: EVQLLESGGGLVQPGGSLRLSCAASGFTFSSYGMHWVRQAPGKGLEWVSVISYDGSYKYYADSVKGRFTISRDNSKNTLYLQMNSLRAEDTAVYYCAAGVPDYWGQGTLVTVSS VL: QSVLTQPPSASGTPGQRVTISCTGSSSNIWAGYDVHWYQQLPGTAPKLLIYSNNERPSGVPDRFSGSKSGTSASLAISGLRSEDEADYYCAAWDDSLNGPVFGGGTKLTVL | 12 nM | 0.64 nM
TPP-26312 (antibody, V domains shown, constant regions not restated) VH: EVQLLESGGGLVQPGGSLRLSCAASGFTFSSYGMHWVRQAPGKGLEWVSVISYDGSYKYYADSVKGRFTISRDNSKNTLYLQMNSLRAEDTAVYYCAAGVPDYWGQGTLVTVSS VL: QSVLTQPPSASGTPGQRVTISCTGSSSNIGAGLDVHWYQQLPGTAPKLLIYSNNERPSGVPDRFSGSKSGTSASLAISGLRSEDEADYYCAAWDDSLNGPVFGGGTKLTVL | 10 nM | 0.8 nM

Second part, the binder after the results:

Kd (human IL-11) | Kd (murine IL-11) | Binder
9.2 nM | 0.45 nM | TPP-26300 (antibody, V domains shown, constant regions not restated) VH: EVQLLESGGGLVQPGGSLRLSCAASGFTFSSYGMHWVRQAPGKGLEWVSVISYDGSYKYYADSVKGRFTISRDNSKNTLYLQMNSLRAEDTAVYYCAAGVPDYWGQGTLVTVSS VL: QSVLTQPPSASGTPGQRVTISCTGSSSNIGAGYDVHWYQQLPGTAPKLLIYSNNERPSGVPDRFSGSKSGTSASLAISGLRSEDEADYYCAAWDSSLNGPVFGGGTKLTVL
16 nM | 1.6 nM | TPP-26307 (antibody, V domains shown, constant regions not restated) VH: EVQLLESGGGLVQPGGSLRLSCAASGFTFSSYGMHWVRQAPGKGLEWVSVISYDGSYKYYADSVKGRFTISRDNSKNTLYLQMNSLRAEDTAVYYCAAGVPDYWGQGTLVTVSS VL: QSVLTQPPSASGTPGQRVTISCTGSSSNIGAGYDVHWYQQLPGTAPKLLIYSNNERPSGVPDRFSGSKSGTSASLAISGLRSEDEADYYCAAWDISLNGPVFGGGTKLTVL
8.4 nM | 0.72 nM | TPP-26316 (antibody, V domains shown, constant regions not restated) VH: EVQLLESGGGLVQPGGSLRLSCAASGFTFSSYGMHWVRQAPGKGLEWVSVISYDGSYKYYADSVKGRFTISRDNSKNTLYLQMNSLRAEDTAVYYCAAGVPDYWGQGTLVTVSS VL: QSVLTQPPSASGTPGQRVTISCTGSSSNIGAGYDVHWYQQLPGTAPKLLIYSNNERPSGVPDRFSGSKSGTSASLAISGLRSEDEADYYCAAWDMSLNGPVFGGGTKLTVL
13 nM | 0.65 nM | TPP-26303 (antibody, V domains shown, constant regions not restated) VH: EVQLLESGGGLVQPGGSLRLSCAASGFTFSSYGMHWVRQAPGKGLEWVSVISYDGSYKYYADSVKGRFTISRDNSKNTLYLQMNSLRAEDTAVYYCAAGVPDYWGQGTLVTVSS VL: QSVLTQPPSASGTPGQRVTISCTGSSSNIGAGYDVHWYQQLPGTAPKLLIYSNNERPEGVPDRFSGSKSGTSASLAISGLRSEDEADYYCAAWDDSLNGPVFGGGTKLTVL
12 nM | 1.4 nM | TPP-26319 (antibody, V domains shown, constant regions not restated) VH: EVQLLESGGGLVQPGGSLRLSCAASGFTFSSYGMHWVRQAPGKGLEWVSVISYDGSYKYYADSVKGRFTISRDNSKNTLYLQMNSLRAEDTAVYYCAAGVPDYWGQGTLVTVSS VL: QSVLTQPPSASGTPGQRVTISCTGSSSNIGAGYDVHWYQQLPGTAPKLLIYSNNEKPSGVPDRFSGSKSGTSASLAISGLRSEDEADYYCAAWDDSLNGPVFGGGTKLTVL
17 nM | 1.3 nM | TPP-26308 (antibody, V domains shown, constant regions not restated) VH: EVQLLESGGGLVQPGGSLRLSCAASGFTFSSYGMHWVRQAPGKGLEWVSVISYDGSYKYYADSVKGRFTISRDNSKNTLYLQMNSLRAEDTAVYYCAAGVPDYWGQGTLVTVSS VL: QSVLTQPPSASGTPGQRVTISCTGSSSNIGAGYDVHWYQQLPGTAPKLLIYSNNERPSGVPDRFSGSKSGTSASLAISGLRSEDEADYYCAAWDVSLNGPVFGGGTKLTVL
13 nM | 0.7 nM | TPP-26302 (antibody, V domains shown, constant regions not restated) VH: EVQLLESGGGLVQPGGSLRLSCAASGFTFSSYGMHWVRQAPGKGLEWVSVISYDGSYKYYADSVKGRFTISRDNSKNTLYLQMNSLRAEDTAVYYCAAGVPDYWGQGTLVTVSS VL: QSVLTQPPSASGTPGQRVTISCTGSSSNIGAGYDVHWYQQLPGTAPKLLIYSNNERPSGVPDRFSGSKSGTSASLAISGLRSEDEADYYCSAWDDSLNGPVFGGGTKLTVL
8.1 nM | 0.9 nM | TPP-26317 (antibody, V domains shown, constant regions not restated) VH: EVQLLESGGGLVQPGGSLRLSCAASGFTFSSYGMHWVRQAPGKGLEWVSVISYDGSYKYYADSVKGRFTISRDNSKNTLYLQMNSLRAEDTAVYYCAAGVPDYWGQGTLVTVSS VL: QSVLTQPPSASGTPGQRVTISCTGSSSNIGAEYDVHWYQQLPGTAPKLLIYSNNERPSGVPDRFSGSKSGTSASLAISGLRSEDEADYYCAAWDDSLNGPVFGGGTKLTVL
13 nM | 0.83 nM | TPP-26320 (antibody, V domains shown, constant regions not restated) VH: EVQLLESGGGLVQPGGSLRLSCAASGFTFSSYGMHWVRQAPGKGLEWVSVISYDGSYKYYADSVKGRFTISRDNSKNTLYLQMNSLRAEDTAVYYCAAGVPDYWGQGTLVTVSS VL: QSVLTQPPSASGTPGQRVTISCTGSSSNIGAGYDVHWYQQLPGTAPKLLIYSNEERPSGVPDRFSGSKSGTSASLAISGLRSEDEADYYCAAWDDSLNGPVFGGGTKLTVL
